Holding throughout (assay type): in vivo
A short description of data set [1]: Acute toxicity in the mouse, ICR. The procedure:
(§1) Animal: mouse (ICR, Swiss Albino and BDF1)
(§2) ICR (female, average body weight 25.0 g, age 5-6 weeks), Swiss Albino (female, average body weight 22.3 g, 5-6 weeks) and BDF1 (female, average body weight 21.5, 6 weeks) were divided into 6 groups consisting of 6 mice each, and predetermined amounts of SPH dissolved in 0.2 ml of physiological saline were administered intraperitoneally.

Data set [2] is described as follows: Acute toxicity in the mouse, Swiss Albino. The procedure:
as §1, §2

Data set [3] in a line: Acute toxicity in the mouse, BDF1. The protocol:
as §1, §2

The nature of data set [4]: Acute toxicity in the mouse, overall statement. The procedure:
as §1, §2
Because the long term toxicity of SPH is low, the condition of the survival mice after recovery is similar to that of the control.

Bridges are numbered along the chain shown (N, C = ends). Where no end group is shown, it is not given here.

On to “KSCCRSTLGRNCYNLCRVRGAQKLCAGVCRCKLTSSGKCPTGFPK (disulfide 3-39, 4-31, 12-29, 16-25) [SPH]”, for which the “No. died (numerator)” value in data set [1] (0.68 mg/Kg i.p.) is 0/6; in data set [1] (1.36 mg/Kg i.p.) it was 1/6; in data set [1] (2.04 mg/Kg i.p.), 4/6; in data set [1] (2.72 mg/Kg i.p.), 6/6; in data set [2] (0.50 mg/Kg i.p.), 0/6; in data set [2] (1.00 mg/Kg i.p.), 1/6. Besides, the “No. died (numerator)” value in data set [2] (1.50 mg/Kg i.p.) was 4/6; in data set [2] (2.00 mg/Kg i.p.), 6/6; in data set [3] (1.00 mg/Kg i.p.), 0/6; in data set [3] (1.50 mg/Kg i.p.), 2/6; in data set [3] (2.00 mg/Kg i.p.), 6/6; in data set [3] (3.00 mg/Kg i.p.), 6/6. Also, the LD50 in data set [1] (i.p.) is 1.81 mg/kg; in data set [2] (i.p.) it was 1.33 mg/kg; in data set [3] (i.p.), 1.58 mg/kg; in data set [4] (mouse, i.p., overall from Table 3) it was “about 1.5 mg/Kg”. The long term toxicity entry in data set [4] (surviving mice after recovery similar to control) is recorded as “low”.

As usually defined, the LD50 is the dose expected to kill half of the subjects tested. A high value points to a less toxic substance.

Values taken from patent publication US4497799A, “Polypeptide carcinostatic agent” (Suntory Ltd., priority 1981, dated 1985).
